For assay [1], the target named is HER2 on SKBR3 cells (human, UniProt P04626 23-1255). Nature of the assay: cell-based or functional assay.
Assay [2] has as its target T1, human recombinant His-tagged HER2 extracellular domain (human, UniProt P04626 23-652).
T1 construct: extracellular domain; also called HER2-ECD; HER-ECD
Briefly: competition EIA on coated HER2, competitor trastuzumab-biotin; given as ED50. Here is the method: (§1) Method: 96 well high binding EIA plates were coated with 10 ng of HER2 protein overnight at 4 C. […] After washing, colorimetric substrate 3,3′,5,5′-tetramethylbenzidine (TMB) was added and absorbance at 620 nm was determined after 10 minutes.

Assay [3] deals with T1, human recombinant His-tagged HER2 …. Nature of the assay: blocking ELISA (competition EIA): HER2 protein coated on the plate, pre-incubated with the antibody, then competitor anti-HER2 TRAST-biotin, streptavidin-HRP; signal as % of h.IgG. Here is the method: as §1
For orientation: In an ELISA, binding on a coated surface is turned into a signal by an enzyme label.

Residue numbers refer to the chain shown, from its start.

B1: 2A2 (antibody, IgG2a, V domains shown)
VH: EVQLVESGGGLVQPGRSLRLSCAASGFTFDDYAMHWVRQAPGKGLEWVSGISWNGGTLGYADSVKGRFTISRDNAKNSLYLQMNSLRAEDTALYYCAKDTGSYSHWYFDLWGRGTLVTVSS
VL: EIVMTQSPATLSVSPGERATLSCRASQSVRSNLAWYQQKPGQAPRLLIYGASTRATGIPARFSGSGSGTEFTLTISSLHSEDFAVYYCQQYNNWPTFGQGTKVEIK
notes: also called AGRD017-2A2; fully human 2A2 antibody
On to B1, for which the “Migration assay, at 50 ug/ml (inhibition of migration of SKBR3 cells)” value in assay [1] came out at 38%. The IC50 in assay [2] is 0.09 µg/mL.

B2: 11D7 (antibody, V domains shown)
VH: B1 VH with S52A, T57I
VL: B1 VL with H79Q, Y87C
notes: Hybridoma antibody from TC-mAb mice; also called AGRD017-11D7; fully human 11D7 antibody
Take B2: in assay [1], the “Migration assay, at 50 ug/ml (inhibition of migration of SKBR3 cells)” value came to 32%. Moreover, the IC50 in assay [2] is 0.06 µg/mL.

B3: 2D7 (antibody, IgG1, V domains shown)
VH: B1 VH with G55S, L58M, D62G
VL: not shown
notes: also called AGRD017-2D7; fully human 2D7 antibody
Take B3: the “IC50 (read off the curve)” value in assay [3] was about 0.1 µg/mL. In assay [1], the “Killing assay at 0.3 ug/ml Ab (2 nM), DM1 (6 nM), 72 hr” value came out at 50% and the “Migration assay, at 50 ug/ml (inhibition of migration of SKBR3 cells)” value came to 59%.

B4: 3G7 (antibody, IgG1, V domains shown)
VH: B1 VH with I51V, L58M, D62G
VL: B1 VL with A60G, T72I, H79Q
notes: also called AGRD017-3G7; fully human 3G7 antibody
Take B4: in assay [1], the “Migration assay, at 50 ug/ml (inhibition of migration of SKBR3 cells)” value is 24%. Moreover, the IC50 in assay [2] is 0.06 µg/mL.

B5: 8C1 (antibody, IgG2a, V domains shown)
VH: B1 VH with A23T
VL: B1 VL
notes: also called AGRD017-8C1; fully human 8C1 antibody
Regarding B5, the “Migration assay, at 50 ug/ml (inhibition of migration of SKBR3 cells)” value in assay [1] worked out at 32%. Also, in assay [2], the concentration for half-maximal inhibition (IC50) is 0.1 µg/mL.

B6: 12E3 (antibody, IgG1, V domains shown)
VH: B1 VH with E6G, D62G
VL: B1 VL with F62C, H79Q
notes: also called AGRD017-12E3; fully human 12E3 antibody
As for B6, in assay [1], the “Internalization: Fluorescent Units” value came out at 9000 Fluorescent Units and the “Migration assay, at 50 ug/ml (inhibition of migration of SKBR3 cells)” value is 45%. In addition, the IC50 in assay [2] was found to be 0.04 µg/mL.

By IC50 is commonly meant the point on the concentration scale where inhibition reaches its midpoint.

Source of the values: patent publication US20260132218A1 (A AND G PHARMACEUTICAL, published 2026).
